The results in this text go back to patent publication CN109467603A (BIOCELLS BEIJING BIOTECHNOLOGY CO LTD, dated 2019).

Assay [1] concerns the target T细胞表面PD-1 (human) (UniProt Q15116). In words: flow cytometry, MNC co-cultured with DC, no BXOS antibody.
Assay [2] has the same target. In words: flow cytometry, MNC cultured alone 3 days, no BXOS antibody.
In assay [3] the target is 生物素化PD-1 (PD-1:PD-L1抑制剂筛选试剂盒, AcroBiosystems，EP-101) (UniProt Q15116). Nature of the assay: competition ELISA, PD-L1 coated, biotinylated PD-1; positive control antibody. In general terms: An ELISA detects its analyte on a solid surface through an enzyme-linked reagent.
Assay [4] deals with T1, 人PD-1重组蛋白(Acro Biosystems，PD-1-H5221) (human, UniProt Q15116 25-167).
T1 construct: Bought
In words: phage ELISA on coated human PD-1 recombinant protein.

T1 sequence (Q15116 25-167 limits assumed): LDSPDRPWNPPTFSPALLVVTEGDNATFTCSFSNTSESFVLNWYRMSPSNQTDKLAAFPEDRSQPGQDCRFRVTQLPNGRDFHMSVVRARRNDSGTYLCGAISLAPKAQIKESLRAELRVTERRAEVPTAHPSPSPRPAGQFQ

As to 商品化的抗PD-1的流式抗体PD-1-PE(biolegend，329906), the PD-1表达量 (% of T cells stained by PD-1-PE) in assay [1] is 32.6 %; in assay [2], 26.2 %.

On to “阳性对照αPD-1单克隆抗体:Anti-PD1mAb，Human(IgG4)Lot No.B52-63NS1-AS,ACRO Biosystems (antibody)”, for which the 阻断率 in assay [3] was 70.7 %.

B1: scFv2 (scFv)
scFv: QVQLVESGGGVVQPGKSLRLSCAASGFSFRNYDMHWVRQAPGRGLEWVAVTWYDGSNKYYADSVKGRFTISRDNSKNTVYLHINSLRAEDTAVYYCAKDQAHYYNYSTGHFSYYFDSWGQGTLVTVSGGGGSGGGGSGGGGSEIVLTQSPATLSLSPGQRATLSCRTSQTIRKHLAWYQQKPGQAPRLLVYDISSRATGIPARFSGSGSGTDFTLTISSLQPDDFATYYCQRYDTYPRTFGQGTKVEIKR
In the case of B1, in assay [4], the binding result is reported as “binds”.

B2: scFv1 (scFv)
scFv: QVQLVQSGGDLVKPGGSLRLSCATSGFTFSTYNMHWVRQAPGKGLEWVSSISRSSDYIYYADSVKGRFTMSRDNAKTSLYLQMNSLRADDTAVYYCARDSWIYDGSGYSSDAFDIWGQGTMVTVSGGGGSGGGGSGGGGSEIVLTQSPATLSLSPGERATLSCRASQSISSYLSWYQQKPGQAPRLLIYDASNRATGIPARFSGGGSGTDFTLTISSLEPEDFAVYYCQQRNSWPLTFGGGTKVEIKR
For B2, the binding result in assay [4] is given as “binds”.

B3: scFv3 (scFv)
scFv: QVQLVQSGAEVKKPGSSVKVSCKASGGTFSSYAISWVRQAPGQGLEWMGRIIPILGIANYAQKFQGRVTITADKSTSTAYKELSSLRSEDTAVYYCAAPLPKNGVYPWGQGTLVTVSSGGGGSGGGGSGGGGSGGGGSEIVMTQSPATLSSSPGERVTLSCRASQSVTSHLAWYQQRPGQAPRLLIYDASKRATGIPARFSGSGSGTDFTLTISSLEPEDFATYYCLQDYRYPRTFGQGTKVEIKR
For B3, the binding result in assay [4] is reported as “binds”.

B4: scFv4 (scFv)
scFv: QVQLVQSGGGLVKPGGSLRLSCVASGFTFSNSGMHWVRQAPGKGLEWVAVIWYDGSKRYYADSVKGRFTISRDNSKNTLFLQMNSLRAEDTAVYYCATNDDYWGQGTLVTVSSGGGGSGGGGSGGGGSEIVMTQSPATLSLSPGERATLSCRASQSVSSNLAWYQQKPGQAPRLLIYDASTRATGIPARFSGSGSGTDFTLTISSLQPEDFATYYCLQDYNYPRTFGQGTKLEIKR
As to B4, the binding result in assay [4] is listed as “binds”.

B5: scFv5 (scFv)
scFv: QVQLVESGGGVVQPGRSLRLDCKASGITFSNSGMHWVRQAPGKGLEWVAVIWYDGSKRYYADSVKGRFTISRDNSKNTLFLQMNSLRAEDTAVYYCATNDDYWGQGTLVTVSSGGGGSGGGGSGGGGSEIVMTQSPATLSLSPGERATLSCRASQSVSSSVSWYQQKLGQAPRLLIYDASNRATGIPARFSGSGSGTDFTLTISSLEPEDFAVYYCQQRSKWPLTFGAGTKVEIKR
B5: the binding result in assay [4] is listed as “binds”.
